“And” between values parts separate entries of the source, which are not always exact repeats. Equal values may be shown once.
B1: FIXa-D104N/K106S/Y155F/R318Y/R338E/R403E/E410N (protein)
chain 1: not shown
chain 2: not shown
B2: FIXa-Y155F/R318Y/R403E/E410N (protein)
chain 1: not shown
chain 2: not shown
B3: FIXa-A103N/N105S/R318Y/R338E/R403E/E410N (protein)
chain 1: not shown
chain 2: not shown
B4: FIXa-D104N/K106S/R318Y/R338E/R403E/E410N (protein)
chain 1: not shown
chain 2: not shown
B5: FIXa-D104N/K106S/N260S/R318Y/R338E/R403E/E410N (protein)
chain 1: not shown
chain 2: not shown
B6: FIXa-A103N/N105S/Y155F/R318Y/R338E/R403E/E410N (protein)
chain 1: not shown
chain 2: not shown
B7: FIXa-K247N/N249S/R318Y/R338E/R403E (protein)
chain 1: not shown
chain 2: not shown
B8: FIXa-R318Y/R338E/Y345A/N346D/R403E/E410N (protein)
chain 1: not shown
chain 2: not shown
B9: FIXa-R318Y/R338E/R403E/E410N (protein)
chain 1: not shown
chain 2: not shown
B10: FIXa-Y155F/R318Y/R338E/R403E/E410N (protein)
chain 1: not shown
chain 2: not shown
B11: FIXa-D203N/F205T/R318Y/E410N (protein)
chain 1: not shown
chain 2: not shown
B12: FIXa-Y155F/K247N/N249S/R318Y/R338E/R403E (protein)
chain 1: not shown
chain 2: not shown

The proteins below were run against Factor X (FX), P00742.
Factor X (FX), P00742, sequence (P00742 whole entry, looked up): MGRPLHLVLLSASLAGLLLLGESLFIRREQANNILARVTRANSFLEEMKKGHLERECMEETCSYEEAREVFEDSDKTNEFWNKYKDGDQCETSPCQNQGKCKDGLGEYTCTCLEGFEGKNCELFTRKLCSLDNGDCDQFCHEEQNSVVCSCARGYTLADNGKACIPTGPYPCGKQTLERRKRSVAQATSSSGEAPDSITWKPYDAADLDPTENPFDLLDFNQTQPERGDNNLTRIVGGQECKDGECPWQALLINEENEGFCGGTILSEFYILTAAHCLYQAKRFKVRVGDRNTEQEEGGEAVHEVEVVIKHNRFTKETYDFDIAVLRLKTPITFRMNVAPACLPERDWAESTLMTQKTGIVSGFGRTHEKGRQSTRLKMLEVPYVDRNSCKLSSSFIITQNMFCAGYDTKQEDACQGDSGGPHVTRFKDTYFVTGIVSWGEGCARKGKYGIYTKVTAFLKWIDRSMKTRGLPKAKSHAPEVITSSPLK
With B1 the “% of WT kcat/KM” value was 394% and 382%, the KM was 0.048 µM and the KM for FX activation by FIXa in the Xase complex (FVIIIa/PC-PS/Ca2+), fluorogenic Spectrafluor FXa assay was 0.048 µM. The kcat was 8.5 s⁻¹. B2 was tested, and the “% of WT kcat/KM” value was 78%, the KM was 0.111 µM and the kcat was 2.9 s⁻¹. In the case of B3, the “% of WT kcat/KM” value is reported as 327% and 318%, the KM is reported as 0.0447 µM and the KM for FX activation by FIXa in the Xase complex (FVIIIa/PC-PS/Ca2+), fluorogenic Spectrafluor FXa assay is reported as 0.0447 µM. For the same protein, the kcat was 5.4 s⁻¹. With B4 the “% of WT kcat/KM” value was 377% and 366%, the KM was 0.0385 µM and the KM for FX activation by FIXa in the Xase complex (FVIIIa/PC-PS/Ca2+), fluorogenic Spectrafluor FXa assay was 0.0385 µM. It also gave a kcat of 5.7 s⁻¹. For B5, the “% of WT kcat/KM (against Catalyst Biosciences WT FIXa), FX activation in the Xase complex” value was 196%, the KM was 0.0611 µM and the KM (nM) for activation of FX by FIXa in the Xase complex (FVIIIa, PC/PS vesicles, Ca2+), fluorogenic Spectrafluor FXa assay was 61.1 nM. The kcat/KM for FX activation by FIXa in the Xase complex (FVIIIa, PC/PS vesicles, Ca2+), indirect fluorogenic Spectrafluor FXa assay was 8.8e+07 M⁻¹ s⁻¹. For B6, the “% of WT kcat/KM” value was 283% and 274%, the KM was 0.0507 µM and the KM for FX activation by FIXa in the Xase complex (FVIIIa/PC-PS/Ca2+), fluorogenic Spectrafluor FXa assay was 0.0507 µM. It also gave a kcat of 6.4 s⁻¹. Protein B7 has a KM of 0.0536 µM and a kcat of 10.5 s⁻¹. In the case of B8, the KM is reported as 0.0565 µM and the kcat is reported as 1.2 s⁻¹. In the case of B9, the “% of WT kcat/KM” value is reported as 262% and 320%, the KM is reported as 0.0432 µM and the KM for FX activation by FIXa in the Xase complex (FVIIIa/PC-PS/Ca2+), fluorogenic Spectrafluor FXa assay is reported as 0.0455 µM. The kcat was 5.8 s⁻¹ and the kcat/KM was 1.2e+08 M⁻¹ s⁻¹. In the case of B10, the “% of WT kcat/KM” value is reported as 418% and 406%, the KM is reported as 0.0304 µM and the KM for FX activation by FIXa in the Xase complex (FVIIIa/PC-PS/Ca2+), fluorogenic Spectrafluor FXa assay is reported as 0.0304 µM. The kcat was 5.3 s⁻¹. In the case of B11, the “% of WT kcat/KM” value is reported as 88% and 85%, the KM is reported as 0.0457 µM and the KM for FX activation by FIXa in the Xase complex (FVIIIa/PC-PS/Ca2+), fluorogenic Spectrafluor FXa assay is reported as 0.0457 µM. It also gave a kcat of 1.6 s⁻¹. B12 was tested, and the KM was 0.0673 µM and the kcat was 5.7 s⁻¹.
